Ends that are not written are not given here. Peptide text beside a SMILES is read from it. * marks the point of attachment. FITC = O=C1OC2(c3ccc(O)cc3Oc3cc(O)ccc32)c2ccc(NC(=S)*)cc21
Assays:
CCK1R = assay: Affinity of amidated gastrins for CCK1R; type: binding
Anx A2 [1] = molecular target: T1, Anx A2 (Rattus norvegicus, UniProt Q07936); conditions: Anx A2 prepared from cancer cells/tumor membranes; cited from earlier work
T1 construct: the 36 kDa Anx A2 protein, prepared from cancer cells/tumor membranes; endogenous in cells

colon cancer xenograft = assay: Homing of FITC-PG26 to Anx A2 over-expressing tumors growing as xenografts in nude mice; type: in vivo
Experimental: FIGS. 8A-E depict 10-100 μg of FITC-PG-26 peptide was dissolved in 100 μl of saline was used to detect the tumor in nude mice. The images were captured in live mice after 1-60 minutes, with injection on the tumor site (FIG. 8A) or through tail vein (FIGS. 8B-D). In FIG. 8B, the localization of tumor cells are marked with arrows detected after 5 minutes post tail vein injection.
For data presented in FIGS. 2-4, 5A-5B and 6A-6E, the full length 80 amino acid rhPG was used (SEQ ID NO: 2), which was visualized by staining with fluorescently labeled primary or secondary antibodies. […] Strong peri-nuclear co-localization of FITC-PG26 with Anx A2 was measured within 15 min of labeling in a chase experiment (FIG. 7). […]
The 26 amino acid PG peptide (PG26), labeled with FITC at the N-terminal end, specifically homed to the site of a colon cancer xenograft, growing either under the skin or growing as a metastatic lesion in the liver. […] Even small tumor lesions were detected with FITC-PG26 after […] of tail vein injection (FIG. 8B). FITC-control peptide was not detected after 30 min of injecting into the tail vein (FIG. 8E), confirming the specificity of FITC-PG26 peptide for homing to tumors in situ.

[2] = Biological activity of PG26
Description: For data presented in FIGS. 2-4, 5A-5B and 6A-6E, the full length 80 amino acid rhPG was used (SEQ ID NO: 2), which was visualized by staining with fluorescently labeled primary or secondary antibodies. However, in order to examine the feasibility of using PG peptides for diagnostic and treatment purposes, synthesized FITC labeled PG fragments (PG26, SEQ ID NO 1: […]) conjugated with either radio- or fluorescently labeled imaging reagents (for diagnostic purposes), or with cytotoxic payloads (for therapeutic purposes) was studied. […] Endocytotic internalization of FITC-PG26 in PG responsive immortalized kidney embryonic cell line, HEK-293, was examined. Strong peri-nuclear co-localization of FITC-PG26 with Anx A2 was measured within 15 min of labeling in a chase experiment (FIG. 7). […] The homing potential of FITC-PG26 to Anx A2 over-expressing tumors, growing as xenografts in nude mice, was confirmed, as shown in FIGS. 8A-8E.

[3] = test system: immortalized cells (IEC, HEK-293) and cancer cell lines (from ovaries/colons); assay: Co-localization of PG with Anx A2 in PG-responsive cells; type: cell-based; conditions: cells responsive to growth effects of PG peptides
Description: (§1) Adenoma and adenocarcinomas tissue sections (from ovarian and colorectal cancers of patients) were positive for Anx A2 expression, while normal tissues were negative (FIGS. 4, 5A-5B). Immortalized intestinal epithelial cell line (IEC-18) are used, which responds to the growth and anti-apoptotic effects of PG peptides (9), for further investigating the biology of interaction of PG with Anx A2. Intra-cellular translocation of labeled PG was examined in IEC-18 cells. […] Using fluoroscense assisted sorting with labeled anti-Anx A2-Abs, presence of extracellular Anx A2 was confirmed on IEC-18 cells (FIG. 6B).

IEC-18 cells = assay: Intra-cellular translocation of PG in IEC-18 cells (confocal microscopy, pull down/WB, Anx A2 siRNA); type: cell-based
Experimental: FIGS. 6A-6E depict the binding of PG with ANXII. FIG. 6A depicts immuno-colocalization of ANXII/PG in IEC cells, incubated with PG. E. IEC-18 cells were seeded, on sterile glass cover slips. Following overnight culture cells were incubated with PG (1 nM) from 0-15 min, and washed 3× with chilled PBS. Cells were fixed in acetone:methanol for 20 min at −20° C., and incubated with anti-PG or anti-ANXII-Abs, followed by fluorescence labeling with second Abs. Images were captured by confocal microscopy at 60×. Insets represent computer assisted enlarged images. Arrows depict co-localization on membranes. […] Cells in culture were detached with liberase to make single cell suspensions and incubated with either non-immune IgG or anti-ANXII-Ab for 2 hours at room temperature, washed with chilled PBS followed by incubation with FITC-second-Ab for 1 hours at room temperature. FIG. 6C depicts IEC-18 cells in culture treated with PG for 0-15 min except for Lamp1 (treated for 0-30 min) at 37° C. and washed with chilled PBS 3×. Cells were processed for pull down with anti-PG-Ab and processed for WB analysis for either EEA1/ANXII/PG/Lamp1. […] The inset portion of the co-localization staining is also shown.
as §1
Since Anx A2 lacks transmembrane domains, mechanisms mediating translocation of Anx A2/PG from outer cell membranes towards intracellular compartments remains unknown. Anx A2 also binds transmembrane proteins such as CD44, which are over-expressed in cancer cells. Thus the tumor specific expression of CD44-like transmembrane proteins offers an additional level of cancer-specific regulation, allowing intra-cellular translocation of PG-Anx A2 only in tumor cells. […] Co-localization of PG/Anx A2 with the early endosomal marker (EEA1) was examined. Cellular lysates from IEC-18 cells, treated with PG for 0, 5 and 15 min, were pulled down with anti-PG Abs and processed for WB analysis for EEA1, Lamp1 (lysomal marker), Anx A2 and PG (FIG. 6C). Possible in situ co-localization of EEA1 with PG was also examined after 15 min of PG stimulation by confocal microscopy (FIG. 6D). […]

Anx A2 [4] = molecular target: Anx A2 (Homo sapiens, UniProt P07355); assay: In vitro binding assay and co-IP of rhPG and ANX-II; conditions: in vitro binding assay, FIG. 3
Description: Lane 1 is rhPG; lane 2 is ANX-II; lanes 3 and 4 are rhPG and ANX-II; lane 3 is IP with anti-PG (aPG); lane 4 is IP with anti-ANX-II (aANX-II). All the samples were processed for WB with both aPG and ANX-II.
as §1

T1 sequence (Q07936 whole entry): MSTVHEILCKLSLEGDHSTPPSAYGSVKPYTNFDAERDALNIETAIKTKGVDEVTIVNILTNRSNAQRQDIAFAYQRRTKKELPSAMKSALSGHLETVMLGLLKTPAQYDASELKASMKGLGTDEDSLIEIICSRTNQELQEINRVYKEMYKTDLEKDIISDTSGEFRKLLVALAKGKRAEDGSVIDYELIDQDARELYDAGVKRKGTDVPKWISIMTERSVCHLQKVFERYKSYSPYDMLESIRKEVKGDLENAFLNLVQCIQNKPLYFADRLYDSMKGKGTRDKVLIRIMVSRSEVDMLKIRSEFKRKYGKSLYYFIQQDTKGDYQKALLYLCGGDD
Sequence of Anx A2 (Homo sapiens, UniProt P07355) (P07355 whole entry, species assumed): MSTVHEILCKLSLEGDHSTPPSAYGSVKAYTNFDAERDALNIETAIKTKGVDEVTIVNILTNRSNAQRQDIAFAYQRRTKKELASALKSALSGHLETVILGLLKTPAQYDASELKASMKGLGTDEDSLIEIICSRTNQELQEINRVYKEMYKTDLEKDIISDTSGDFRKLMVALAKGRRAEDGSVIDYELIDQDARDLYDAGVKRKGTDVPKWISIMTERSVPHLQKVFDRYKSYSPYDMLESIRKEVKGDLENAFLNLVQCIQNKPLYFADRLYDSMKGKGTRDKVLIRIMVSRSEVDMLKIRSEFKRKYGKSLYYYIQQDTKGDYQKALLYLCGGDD

Question: Which “affinity for CCK1R” value (CCK1R) does the source give for G17: amidated gastrin here?
Answer: The value was “much higher affinity”.

Question: For “G34: amidated gastrin (QLGPQGPPHLVADPSKKQGPWLEEEEEAYGWMDF-NH2; ends and bridges not checked; UniProt P01350 59-92, looked up)”, which “affinity for CCK1R” value (CCK1R) is on record?
Answer: The value was “much higher affinity”.

Question: For “CCK8: cholecystokinin CCK8 [reference compound]”, which “Relative binding affinity (RBA) for the 36 kDa Anx A2 protein, rank order” value (“Relative binding affinity (RBA)” below) (Anx A2 [1]) is on record?
Answer: The value was “no affinity”.

Question: With `CSCC[C@H](NC(=O)[C@H](Cc1c[nH]c2ccccc12)NC(=O)CNC(=O)[C@H](Cc1ccc(O)cc1)NC(=O)[C@H](C)NC(=O)[C@H](CCC(=O)O)NC(=O)[C@H](CCC(=O)O)NC(=O)[C@H](CCC(=O)O)NC(=O)[C@H](CCC(=O)O)NC(=O)[C@H](CCC(=O)O)NC(=O)[C@H](CC(C)C)NC(=O)[C@H](Cc1c[nH]c2ccccc12)NC(=O)[C@@H]1CCCN1C(=O)CNC(=O)[C@H](CCC(N)=O)NC(=S)Nc1ccc2c(c1)C(=O)OC21c2ccc(O)cc2Oc2cc(O)ccc21)C(=O)N[C@@H](CC(=O)O)C(=O)N[C@@H](Cc1ccccc1)C(=O)NCC(=O)N[C@@H](CCCNC(=N)N)C(=O)N[C@@H](CCCNC(=N)N)C(=O)N[C@@H](CO)C(=O)N[C@@H](C)C(=O)N[C@@H](CCC(=O)O)C(=O)N[C@@H](CC(=O)O)C(=O)N[C@@H](CCC(=O)O)C(=O)N[C@@H](CC(N)=O)C(=O)O` [FITC-PG26] ({FITC}-QGPWLEEEEEAYGWMDFGRRSAEDEN-OH; N-terminus and C-terminus assumed) as the molecule, how does the “retention in the tumor” value (colon cancer xenograft; i.v. injection through the tail vein, FIG. 8C) read?
Answer: The value was about 60 min.

Question: And the “retention of fluorescence in tumor” value (colon cancer xenograft; injected intra-tumorally, FIG. 8A)?
Answer: Its value is over 20 min.

Question: With “QGPWLEEEEEAYGWMDFGRRSAEDEN (homing progastrin peptide specifically binding annexin2) [PG26, 26 amino acid PG peptide fragment]” as the molecule, how does the biological activity [2] read?
Answer: Its biological activity is “biologically active”.

B1: PG: full length 80 amino acid rhPG (SEQ ID NO: 2) (protein)
chain: SWKPRSQQPDAPLGTGANRDLELPWLEQQGPASHHRRQLGPQGPPHLVADPSKKQGPWLEEEEEAYGWMDFGRRSAEDEN
modifications: recombinant human progastrin
Question: With B1 as the molecule, how does the “co-localization of PG with Anx A2” value [3] read?
Answer: The value was “strong co-localization”.

Question: What about the PG binding/uptake (IEC-18 cells; IEC18 cells treated with specific siRNA against Anx A2, FIG. 6E) of the same molecule?
Answer: Its PG binding/uptake is “completely negative”.

Question: And the “localization of PG/Anx A2 after addition of PG” value (IEC-18 cells; IEC-18 cells, FIG. 6A)?
Answer: The value was “initial co-localization of PG with Anx A2 on the cellular membranes, followed by rapid intracellular localization”.

Question: What about the “time to translocation of Anx A2 and PG into early endosomes” value (IEC-18 cells; after PG stimulation, IEC-18 cells) of the same molecule?
Answer: Its value is at most 5 min.

Question: What about the “increase in co-IP of Lamp1 with PG” value (IEC-18 cells; later time points, FIG. 6C) of the same molecule?
Answer: Its value is about 5 fold.

Question: And the “binding of Anx A2 and rhPG” value (Anx A2 [4])?
Answer: Its value is “Direct binding”.

Question: What about the “Relative binding affinity (RBA)” value (Anx A2 [1]) of the same molecule?
Answer: The value was “PG>G-Gly>G17”.

B2: G-Gly: glycine-extended gastrin, processing intermediate of progastrin (peptide)
peptide: B1 chain
Question: For B2, which “Relative binding affinity (RBA)” value (Anx A2 [1]) is on record?
Answer: Its value is “PG>G-Gly>G17”.

— patent US20110085986A1, “Diagnosis and treatment of epithelial cancers using labeled/conjugated progastrin peptides” (priority 2009, published 2011)
